Results on five molecules are retold here after paper PMC9873573, “Cryo-EM structure of the respiratory I + III2 supercomplex from Arabidopsis thaliana at 2 Å resolution” (Nature Plants, 2022).

T1: complex I, FMN / NADH site (51 kDa subunit), in the I + III2 supercomplex (Arabidopsis thaliana, UniProt Q9FNN5)
T1 construct: gene At5g08530; native supercomplex; tested as whole I + III2 assembly of 68 subunits
T1 sequence (Q9FNN5 31-486): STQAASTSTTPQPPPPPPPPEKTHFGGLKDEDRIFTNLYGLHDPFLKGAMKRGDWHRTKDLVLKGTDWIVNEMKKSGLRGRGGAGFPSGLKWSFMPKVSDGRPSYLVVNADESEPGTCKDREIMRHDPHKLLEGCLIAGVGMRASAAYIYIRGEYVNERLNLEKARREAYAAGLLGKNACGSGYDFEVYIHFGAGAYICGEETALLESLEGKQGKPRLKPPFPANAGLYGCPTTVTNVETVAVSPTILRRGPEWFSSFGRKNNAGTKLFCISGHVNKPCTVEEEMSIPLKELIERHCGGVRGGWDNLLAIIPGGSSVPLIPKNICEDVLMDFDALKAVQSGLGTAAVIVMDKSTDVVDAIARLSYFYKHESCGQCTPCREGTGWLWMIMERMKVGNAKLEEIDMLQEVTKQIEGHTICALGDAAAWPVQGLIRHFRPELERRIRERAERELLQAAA

T2: mitochondrial processing peptidase subunit MPP-α-1 of complex III (Arabidopsis thaliana (endogenous in …, UniProt Q9ZU25 60-503))
T2 construct: MPP-α, isoform 1 (the dominant isoform, fitted to the map), subunit of Arabidopsis thaliana complex III
T2 sequence (looked up): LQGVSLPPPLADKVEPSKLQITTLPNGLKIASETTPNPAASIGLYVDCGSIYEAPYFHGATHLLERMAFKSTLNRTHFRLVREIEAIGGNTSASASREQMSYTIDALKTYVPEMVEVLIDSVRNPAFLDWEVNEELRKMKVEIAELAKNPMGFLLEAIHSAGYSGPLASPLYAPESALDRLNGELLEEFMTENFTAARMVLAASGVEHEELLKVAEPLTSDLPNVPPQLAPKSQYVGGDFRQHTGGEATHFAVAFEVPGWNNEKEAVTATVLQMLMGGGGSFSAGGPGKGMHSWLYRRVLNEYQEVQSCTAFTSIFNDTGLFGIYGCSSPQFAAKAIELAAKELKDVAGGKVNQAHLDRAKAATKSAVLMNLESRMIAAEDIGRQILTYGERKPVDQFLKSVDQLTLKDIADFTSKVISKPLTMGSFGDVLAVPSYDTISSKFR

T3: mitochondrial processing peptidase subunit MPP-β of complex III (Arabidopsis thaliana (endogenous in …, UniProt Q42290 79-531))
T3 construct: MPP-β, subunit of Arabidopsis thaliana complex III
T3 sequence (looked up): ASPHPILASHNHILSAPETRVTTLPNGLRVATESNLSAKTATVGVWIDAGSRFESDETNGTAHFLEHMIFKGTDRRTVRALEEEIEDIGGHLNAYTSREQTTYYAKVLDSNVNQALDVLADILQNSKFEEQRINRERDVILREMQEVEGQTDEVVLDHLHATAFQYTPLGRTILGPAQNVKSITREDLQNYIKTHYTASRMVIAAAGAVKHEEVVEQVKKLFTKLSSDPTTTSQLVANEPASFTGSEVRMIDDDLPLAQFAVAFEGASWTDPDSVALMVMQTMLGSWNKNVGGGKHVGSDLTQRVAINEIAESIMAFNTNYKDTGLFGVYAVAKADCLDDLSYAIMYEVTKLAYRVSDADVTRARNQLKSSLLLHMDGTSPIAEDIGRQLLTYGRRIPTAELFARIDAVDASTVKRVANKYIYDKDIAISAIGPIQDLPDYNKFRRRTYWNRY

T4: complex I core subunit ND5 (Arabidopsis thaliana (endogenous in …, UniProt P29388 1-669))
T4 sequence (looked up): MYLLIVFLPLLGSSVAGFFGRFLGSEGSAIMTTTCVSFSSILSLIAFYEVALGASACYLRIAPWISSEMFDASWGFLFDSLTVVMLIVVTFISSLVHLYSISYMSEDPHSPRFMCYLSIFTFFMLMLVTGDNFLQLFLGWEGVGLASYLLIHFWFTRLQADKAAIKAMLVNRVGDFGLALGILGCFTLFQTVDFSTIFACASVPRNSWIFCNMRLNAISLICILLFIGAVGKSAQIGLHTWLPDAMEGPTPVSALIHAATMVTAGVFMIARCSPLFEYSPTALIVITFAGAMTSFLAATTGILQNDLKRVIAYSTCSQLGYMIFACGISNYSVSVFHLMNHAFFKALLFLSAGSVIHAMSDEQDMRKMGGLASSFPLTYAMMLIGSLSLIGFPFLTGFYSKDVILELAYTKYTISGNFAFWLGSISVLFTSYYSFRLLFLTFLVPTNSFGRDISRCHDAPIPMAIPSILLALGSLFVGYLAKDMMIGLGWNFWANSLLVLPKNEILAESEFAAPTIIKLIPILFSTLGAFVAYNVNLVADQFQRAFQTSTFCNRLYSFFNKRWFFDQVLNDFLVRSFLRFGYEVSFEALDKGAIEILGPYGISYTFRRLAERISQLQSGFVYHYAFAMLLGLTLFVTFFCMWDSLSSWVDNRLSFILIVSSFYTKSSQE

B1: complex I subunit B22 (natural protein, UniProt Q945M1 1-117, looked up)
chain: MSGVSTAAYFARRAAQKERVRILYRRALKDTLNWAVHRHIFYRDASDLREKFNVNQDVEDVDRIDKLIAHGEAEYNKWRHPDPYIVPWAPGGSKFCRNPTPPAGIEIVYNYGLEDNP
notes: accessory subunit B22 of Arabidopsis thaliana mitochondrial complex I (membrane arm)
B2: complex III subunit QCR8-1 (natural protein, UniProt Q9SG91 1-72, looked up)
chain: MGKQPVKLKAVVYALSPFQQKIMTGLWKDLPEKIHHKVSENWISATLLVTPVVGTYWYAQYFKEQEKLEHRF
notes: QCR8, isoform 1 (the dominant isoform, fitted to the map), accessory subunit of Arabidopsis thaliana complex III
B3: complex I subunit B14.7 (natural protein, UniProt O48528 1-159, looked up)
chain: MDPAEMRYLEEEDGPLMKTIKGSITGFGAGTIYGTILATWKDVPRVERNVALPGLIRTLKMMGTHGLTFAAIGGVYIGVEQLVQNFRSKRDFYNGAIGGFVAGASVLGYRARSIPTAIAAGATLAVTSALIDSGGQTTRVDNGREYYPYTVEKRAEADS
notes: subunit B14.7 of Arabidopsis thaliana mitochondrial complex I (membrane arm); absent from the earlier structures of free plant complex I; also called B14.7 kDa subunit
B4: complex III subunit QCR6-1 (natural protein, UniProt Q0WWE3 1-69, looked up)
chain: MADDEVVDPKKYLEESCKPKCVKPLLEYQACVKRIQGDDSGHKHCTGQYFDYWQCIDKCVAPKLFAKLK
notes: QCR6, isoform 1 (the dominant isoform, fitted to the map), accessory subunit of Arabidopsis thaliana complex III

Experiment [1] has as its target T1, complex I, FMN / NADH site (51 kDa subunit), in the I + III2 supercomplex. The experiment can be described thus: cryo-EM structure, […] Å. It is filed as binding. As to conditions: co-purified.
The target of experiment [2] is T2, mitochondrial processing peptidase …. Description: cryo-EM structure; native I + III2 supercomplex isolated from digitonin-solubilised Arabidopsis mitochondria (sucrose gradient, Superose 6 in GDN); 30 mM Tris-HCl pH 7.4, 60 mM NaCl, 0.02% GDN; 2.36 Å for the whole supercomplex, 2.03 Å after multibody refinement, 1.9 Å after density modification. Particulars: both partners purified.

The target of experiment [3] is T3, mitochondrial processing peptidase …. Described as above. Particulars: both partners purified.
The target in the experiment “complex I subunit B14.7” is B3. The experiment is described as above. As to conditions: both partners purified.
Experiment [4] concerns the target T4, complex I core subunit ND5. Described as above. As to conditions: both partners purified.

For `Cc1cc2nc3c(=O)[nH]c(=O)nc-3n(C[C@H](O)[C@H](O)[C@H](O)COP(=O)(O)O)c2cc1C` [FMN], in experiment [1], the “cryo-EM structure, 2 Å” value was “Complex I: FMN (Flavin mononucleotide), N1a, N1b, N2, N3”.

Consider B1, for which the binding result in experiment [2] and in experiment [3] was “binds” in each case.

For the molecule B2, in the experiment with complex I subunit B14.7, the binding result is “binds”.

Consider B3, for which the binding result in experiment [4] was “binds”.

As for B4, the binding result with complex I subunit B14.7 is on record as “binds”.
